The record followed here is patent US20220072120A1 (University of Washington, published 2022).

The experiment has as its target A/Hong_Kong/4801/2014 (H3N2) HA 1-676 Y98F GG lkr dn5B.SA (influenza A virus A/Hong_Kong/4801/2014 …). The experiment is described as follows: in vitro co-assembly; SEC, SDS-PAGE of elution peaks, negative-stain EM.

B1: I53-dn5 A (designed binder)
chain: MGKYDGSKLRIGILHARWNAEIILALVLGALKRLQEFGVKRENIIIETVPGSFELPYGSKLFVEKQKRLGKPLDAIIPIGVLIKGSTMHFEYICDSTTHQLMKLNFELGIPVIFGVLTCLTDEQAEARAGLIEGKMHNHGEDWGAAAVEMATKFN
On to B1, for which the binding result is “binds”.
